From publication doi:10.1101/2025.03.13.642734

Target: ExsA-His6 (Pseudomonas aeruginosa) (UniProt P26993)
UniProt P26993, sequence (P26993 whole entry): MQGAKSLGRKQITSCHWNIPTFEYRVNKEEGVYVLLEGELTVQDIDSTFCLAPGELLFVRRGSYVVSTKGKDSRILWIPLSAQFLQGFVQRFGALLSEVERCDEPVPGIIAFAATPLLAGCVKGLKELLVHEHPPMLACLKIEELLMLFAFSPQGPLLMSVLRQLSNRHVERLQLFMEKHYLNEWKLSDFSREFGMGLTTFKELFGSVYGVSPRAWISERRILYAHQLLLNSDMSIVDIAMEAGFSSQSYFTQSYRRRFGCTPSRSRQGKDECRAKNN

Substance GST-Dap2 (natural protein) has an EMSA: ExsA-exsC promoter DNA complex with increasing concentrations of GST-Dap2 of 1 µM.
